Measurements reported in US20100190202A1, “NOVEL POPULATION OF HEPATOCYTES DERIVED VIA DEFINITIVE ENDODERM (DE-HEP) FROM HUMAN BLASTOCYSTS STEM CELLS” (Cellartis AB, priority 2007, published 2010).

How the values were obtained:
hBS cells = experiment: Sox17/Sox7 immunostaining of Activin A treated hBS cell cultures; format: cell-based, human; settings: after 4 days in Activin A; of the remaining cells
Excerpt: We used Activin A, and Activin A in combination with Wnt3a and/or FGF2 to generate DE. After 4 to 5 days in Stage I the hBS cell colony differentiated and genetic markers for early DE were examined using quantitative real-time real time-PCR (Q-PCR). Activin A induced a strong wave of early endoderm at day 3 to 5, and was highlighted by high expression levels of Sox17, HNF3beta (HNF3b or HNF3b) and Cxcr4 expression (FIG. 4) and then reduced to near baseline levels (data not shown). […] Furthermore they up regulate early liver markers like AFP or AAT. At this early stage in differentiation and development, this indicates the presence of extraembryonic endoderm (ExE) in intrinsically differentiating colonies (FIGS. 5 and 10). The expression data were confirmed by co-staining of Sox17/Sox7, Sox17/Cxcr4, Sox17/Oct4, Sox7/HNF3b (data not shown). […] The changes of gene expression after Activin A treatment were associated to morphological changes and distinct differentiation pattern of the colonies (FIG. 2). After 4 to 5 days induction with Activin A containing medium cells gathered together and formed a ring of epithelial cells around the colony. […]
Activin A induces definitive endoderm detected by a combination of Sox17+/Sox7−, 80-90% of the total cells in a Activin A or Activin A/FGF2 treated culture are estimated to be Sox17 positive and negative for Sox7 (manual counting in microscope). […]

hESC line SA002 = experiment: Real-time PCR after exposure to activin A or activin B; format: cell-based, human; settings: 100 ng/ml, 5 ng/ml bFGF, 5 days
Protocol: Undifferentiated hESC line SA002 were exposed to either activin A (100 ng/ml) or activin B (100 ng/ml) in the presence of 5 ng/ml bFGF for 5 days and analyzed for gene expression.
mRNA expression of Foxa2, Sox17, CXCR4, Sox7, CDX2, AAT was measured by real-time PCR using the ABI/TaqMan method. In short, RNA was isolated from the cell cultures by using Qiagen's RNeasy system. cDNA was synthesized by using the ABI high capacity cDNA synthesis kit. RT-PCR was performed in a ABI 7500 by using TaqMan probe. The expression level was normalized to CREBBP expression.

Molecule	Sox17 positive cells (hBS cells)	mRNA expression of endodermal markers Foxa2, Sox17 and CXCR4 compared to activin A (hESC line SA002)	mRNA expression of extraembryonal markers Sox7, CDX2 and AAT compared to activin A (hESC line SA002)
Activin A: TGF-beta family member used at 100 ng/ml to induce definitive endoderm (protein, UniProt P08476 311-426, looked up, Inhibin beta A chain, TGF-beta family member used at 100 ng/ml to induce definitive endoderm) Inhibin beta A chain: GLECDGKVNICCKKQFFVSFKDIGWNDWIIAPSGYHANYCEGECPSHIAGTSGSSLSFHSTVINHYRMRGHSPFANLKSCCVPTKLRPMSMLYYDDGQNIIKKDIQNMIVEECGCS	more than 70%	–	–
activin B: activin B, 100 ng/ml, substituted for activin A for induction of endoderm (protein, UniProt P09529 293-407, looked up, Inhibin beta B chain) Inhibin beta B chain: GLECDGRTNLCCRQQFFIDFRLIGWNDWIIAPTGYYGNYCEGSCPAYLAGVPGSASSFHTAVVNQYRMRGLNPGTVNSCCIPTKLSTMSMLYFDDEYNIVKRDVPNMIVEECGCA	–	either the same or even higher	the same or lower
